According to publication PMC7352202, “An Integrative Synthetic Biology Approach to Interrogating Cellular Ubiquitin and Ufm Signaling” (International Journal of Molecular Sciences, 2020):

Target: T1, GST-UFL1 (human, UniProt O94874 1-794)
T1 construct: UFL1, human, E3 ligase for ufmylation; purified recombinant GST-UFL1; The end of the GST tag is read from the printed name 'GST-UFL1'; source: E. coli BL21, purified (glutathione beads); not shown: GST, N-terminal, kept
T1 sequence (looked up): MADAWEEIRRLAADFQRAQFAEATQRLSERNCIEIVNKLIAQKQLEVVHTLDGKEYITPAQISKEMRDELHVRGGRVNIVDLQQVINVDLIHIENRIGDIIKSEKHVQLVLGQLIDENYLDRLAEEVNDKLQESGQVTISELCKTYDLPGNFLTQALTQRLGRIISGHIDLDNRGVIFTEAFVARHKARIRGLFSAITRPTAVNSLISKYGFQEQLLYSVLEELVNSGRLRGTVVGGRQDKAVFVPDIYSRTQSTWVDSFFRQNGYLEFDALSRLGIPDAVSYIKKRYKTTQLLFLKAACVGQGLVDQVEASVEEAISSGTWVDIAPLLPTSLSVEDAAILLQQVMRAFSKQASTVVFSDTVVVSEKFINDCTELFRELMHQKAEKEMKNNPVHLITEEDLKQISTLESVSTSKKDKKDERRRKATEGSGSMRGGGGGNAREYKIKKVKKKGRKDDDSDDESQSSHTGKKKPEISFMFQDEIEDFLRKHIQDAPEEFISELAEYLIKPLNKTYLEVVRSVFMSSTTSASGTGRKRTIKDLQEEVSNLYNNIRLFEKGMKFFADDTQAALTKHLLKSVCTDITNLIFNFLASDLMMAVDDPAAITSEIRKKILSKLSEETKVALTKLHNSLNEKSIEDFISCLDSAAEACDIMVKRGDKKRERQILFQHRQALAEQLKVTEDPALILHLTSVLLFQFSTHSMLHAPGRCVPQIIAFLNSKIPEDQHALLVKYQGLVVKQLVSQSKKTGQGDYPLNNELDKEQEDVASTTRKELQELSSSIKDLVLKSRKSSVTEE
Assay: pull-down; GST pull-down: purified GST-UFL1 (20 ug) and substrate-Flag-His6 (20 ug) with Glutathione Sepharose 4B beads, 4 °C overnight, 20 mM Tris-Cl, 100 mM NaCl, 5 mM MgCl2, 1 mM EDTA, 1 mM DTT, 0.5% NP-40, 10 ug/mL BSA, pH 7.5; immunoblot
Settings: both partners purified

B1: MT1M-Flag-His6 (natural protein)
chain: not shown
notes: MT1M, metallothionein family, human; purified recombinant MT1M-Flag-His6; The ends of the tags are read from the printed name; source: E. coli BL21, purified (Ni-NTA beads); not shown: Flag, C-terminal, kept; His6, C-terminal, kept
binding result: binds
